The target in this assay is human angiotensin-converting enzyme 2 (human) (UniProt Q9BYF1).
Chain of human angiotensin-converting enzyme 2 (human) (Q9BYF1 18-805): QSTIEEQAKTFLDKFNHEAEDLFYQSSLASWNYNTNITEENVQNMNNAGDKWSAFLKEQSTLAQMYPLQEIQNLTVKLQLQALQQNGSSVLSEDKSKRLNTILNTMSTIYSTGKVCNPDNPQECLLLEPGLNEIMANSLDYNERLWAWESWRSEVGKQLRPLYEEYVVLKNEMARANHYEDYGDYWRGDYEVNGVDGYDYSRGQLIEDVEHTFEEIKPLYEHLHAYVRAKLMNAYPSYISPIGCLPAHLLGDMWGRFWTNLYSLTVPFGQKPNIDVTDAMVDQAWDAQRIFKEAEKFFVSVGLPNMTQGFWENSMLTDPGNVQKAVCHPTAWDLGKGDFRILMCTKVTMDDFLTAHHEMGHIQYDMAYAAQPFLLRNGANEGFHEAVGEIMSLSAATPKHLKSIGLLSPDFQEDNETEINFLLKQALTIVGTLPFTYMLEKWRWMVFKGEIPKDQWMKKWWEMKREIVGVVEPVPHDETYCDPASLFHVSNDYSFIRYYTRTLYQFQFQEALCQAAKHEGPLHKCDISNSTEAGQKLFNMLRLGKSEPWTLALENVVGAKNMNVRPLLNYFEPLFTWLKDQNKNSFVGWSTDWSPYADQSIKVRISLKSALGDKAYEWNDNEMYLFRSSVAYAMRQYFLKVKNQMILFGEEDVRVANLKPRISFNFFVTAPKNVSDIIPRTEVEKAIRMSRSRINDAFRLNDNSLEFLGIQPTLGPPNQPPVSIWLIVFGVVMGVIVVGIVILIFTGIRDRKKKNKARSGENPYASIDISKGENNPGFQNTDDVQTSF

Chain of wild-type human PCSK9, mature (prodomain non-covalently bound to the rest of the protein) (Q8NBP7 31-152): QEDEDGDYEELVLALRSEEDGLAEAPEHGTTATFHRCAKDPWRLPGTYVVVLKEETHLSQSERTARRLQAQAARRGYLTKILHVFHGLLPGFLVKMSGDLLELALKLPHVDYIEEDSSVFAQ
Chain of wild-type human PCSK9, mature (prodomain non-covalently bound to the rest of the protein) (Q8NBP7 153-692): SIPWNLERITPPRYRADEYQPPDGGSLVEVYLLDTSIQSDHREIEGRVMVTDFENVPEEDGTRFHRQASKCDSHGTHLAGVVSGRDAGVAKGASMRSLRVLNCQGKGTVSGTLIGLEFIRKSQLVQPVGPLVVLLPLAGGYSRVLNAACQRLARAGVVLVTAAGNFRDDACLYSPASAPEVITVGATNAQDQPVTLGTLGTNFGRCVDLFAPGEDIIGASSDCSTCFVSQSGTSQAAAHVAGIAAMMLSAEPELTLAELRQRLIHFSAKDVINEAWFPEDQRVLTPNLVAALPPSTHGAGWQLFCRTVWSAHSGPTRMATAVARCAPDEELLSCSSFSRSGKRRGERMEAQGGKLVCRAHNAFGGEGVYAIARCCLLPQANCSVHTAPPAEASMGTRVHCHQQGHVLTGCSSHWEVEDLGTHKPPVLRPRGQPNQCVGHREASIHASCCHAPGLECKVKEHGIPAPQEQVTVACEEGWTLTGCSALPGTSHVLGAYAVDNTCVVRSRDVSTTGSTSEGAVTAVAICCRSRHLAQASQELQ
Chain of PCSK9 lacking the M2 module of the CHRD (Q8NBP7 31-152): as the sequence (Q8NBP7 31-152) above
Chain of PCSK9 lacking the M2 module of the CHRD (Q8NBP7 153-692): as the sequence (Q8NBP7 153-692) above
Chain of PCSK9 lacking the CHRD (Q8NBP7 31-152): as the sequence (Q8NBP7 31-152) above
Chain of PCSK9 lacking the CHRD (Q8NBP7 153-455): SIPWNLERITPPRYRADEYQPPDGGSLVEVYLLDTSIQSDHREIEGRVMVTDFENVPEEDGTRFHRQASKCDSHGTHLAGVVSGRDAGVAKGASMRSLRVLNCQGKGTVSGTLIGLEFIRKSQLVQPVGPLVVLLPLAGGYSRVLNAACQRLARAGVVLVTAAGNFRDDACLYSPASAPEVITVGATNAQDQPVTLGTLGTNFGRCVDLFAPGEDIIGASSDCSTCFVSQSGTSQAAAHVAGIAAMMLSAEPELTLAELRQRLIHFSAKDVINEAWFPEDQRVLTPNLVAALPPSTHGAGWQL

With “wild-type human PCSK9, mature (prodomain non-covalently bound to the rest of the protein) (from UniProt Q8NBP7 31-152; Q8NBP7 153-692) (natural protein)”, the reduction of the level of ACE2 in HeLa cells after 18 h with PCSK9 conditioned medium (Western blot, relative to β-actin) stood at 30%. In the case of “PCSK9 lacking the CHRD (from UniProt Q8NBP7 31-152; Q8NBP7 153-455) (domain or fragment)”, the reduction of the level of ACE2 in HeLa cells after 18 h with conditioned medium (Western blot, relative to β-actin) was determined as 50%.

Substance “PCSK9 lacking the M2 module of the CHRD (from UniProt Q8NBP7 31-152; Q8NBP7 153-692) (natural protein)” had a reduction of the level of ACE2 in HeLa cells after 18 h with conditioned medium (Western blot, relative to β-actin) of 50%. “PCSK9-D374Y, gain-of-function natural variant (from UniProt Q8NBP7 31-152; Q8NBP7 153-692) (natural protein)” came in with a reduction of the level of ACE2 in HeLa cells after 18 h with conditioned medium (Western blot, relative to β-actin) of 90%.

Values taken from article PMC9959508.
